Experimental findings from publication PMC2813365 are described below.

The target of series [1] is T1, PF14_0633 AP2 domain (Plasmodium falciparum, UniProt Q8IKH2 63-123). In words: size exclusion chromatography. For orientation: In gel filtration, larger molecules generally elute earlier.
Series [2] has as its target T1, PF14_0633 AP2 domain. Kind of series: X-ray crystallography.

B1: non-cognate 17bp (dsDNA)
DNA 1: TGTGCATAGTGGTGCGA
DNA 2: TCGCACCACTATGCACA
As to B1, the binding result in the series with PF14_0633 AP2 domain [1] is “binds”.

B2: cognate 8bp (dsDNA)
DNA 1: TGCATGCA
DNA 2: TGCATGCA
As to B2, in the series with PF14_0633 AP2 domain [2], the binding result is “binds”.
